Where two headings read alike, the source gives them in different places.
T1: sIL6R Fc dimer (UniProt P08887 20-358, limits assumed)
T1 construct: not shown: Fc
T1 sequence (looked up): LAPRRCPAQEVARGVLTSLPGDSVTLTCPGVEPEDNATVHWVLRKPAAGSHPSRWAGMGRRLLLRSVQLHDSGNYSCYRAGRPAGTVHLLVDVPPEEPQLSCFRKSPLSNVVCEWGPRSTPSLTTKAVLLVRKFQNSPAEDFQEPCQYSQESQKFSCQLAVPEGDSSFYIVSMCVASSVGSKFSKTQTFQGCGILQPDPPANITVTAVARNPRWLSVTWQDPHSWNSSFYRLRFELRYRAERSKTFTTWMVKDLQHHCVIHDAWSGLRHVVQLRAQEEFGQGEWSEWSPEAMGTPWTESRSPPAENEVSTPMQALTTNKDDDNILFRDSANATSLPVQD

T2: hu HIL6 AFH monomer (human)
T2 chain: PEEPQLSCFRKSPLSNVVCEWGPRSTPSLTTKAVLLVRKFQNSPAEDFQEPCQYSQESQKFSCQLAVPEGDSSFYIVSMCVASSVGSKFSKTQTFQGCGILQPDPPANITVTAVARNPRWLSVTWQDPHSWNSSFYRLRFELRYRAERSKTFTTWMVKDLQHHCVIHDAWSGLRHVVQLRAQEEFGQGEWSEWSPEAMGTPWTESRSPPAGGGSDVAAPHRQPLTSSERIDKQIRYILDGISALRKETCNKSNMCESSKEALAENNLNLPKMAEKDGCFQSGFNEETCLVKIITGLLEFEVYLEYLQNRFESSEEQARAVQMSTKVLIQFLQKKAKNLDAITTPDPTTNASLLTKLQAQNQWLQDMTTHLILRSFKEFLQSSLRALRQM

T3: recombinant human soluble IL6 receptor (human, UniProt P08887 20-358)
T3 construct: also called sIL6R; sIL-6R
T3 sequence (looked up): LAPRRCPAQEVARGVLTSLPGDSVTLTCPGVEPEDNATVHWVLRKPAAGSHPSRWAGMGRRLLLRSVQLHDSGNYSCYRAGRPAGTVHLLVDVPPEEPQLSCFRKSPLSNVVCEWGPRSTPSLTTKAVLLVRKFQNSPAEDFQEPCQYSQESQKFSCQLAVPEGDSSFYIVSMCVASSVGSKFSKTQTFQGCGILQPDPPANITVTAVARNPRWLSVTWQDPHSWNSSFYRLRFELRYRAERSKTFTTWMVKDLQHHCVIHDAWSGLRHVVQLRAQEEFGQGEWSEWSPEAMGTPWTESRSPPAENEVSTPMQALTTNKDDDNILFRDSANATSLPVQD

T4: hu HIL6 Fc dimer (dimeric human HIL6/mouse IgG Fc fusion protein) (human)
T4 construct: also called human hyper-IL6 (IL6R-IL6-mIgG); dimeric HIL6
T4 chain: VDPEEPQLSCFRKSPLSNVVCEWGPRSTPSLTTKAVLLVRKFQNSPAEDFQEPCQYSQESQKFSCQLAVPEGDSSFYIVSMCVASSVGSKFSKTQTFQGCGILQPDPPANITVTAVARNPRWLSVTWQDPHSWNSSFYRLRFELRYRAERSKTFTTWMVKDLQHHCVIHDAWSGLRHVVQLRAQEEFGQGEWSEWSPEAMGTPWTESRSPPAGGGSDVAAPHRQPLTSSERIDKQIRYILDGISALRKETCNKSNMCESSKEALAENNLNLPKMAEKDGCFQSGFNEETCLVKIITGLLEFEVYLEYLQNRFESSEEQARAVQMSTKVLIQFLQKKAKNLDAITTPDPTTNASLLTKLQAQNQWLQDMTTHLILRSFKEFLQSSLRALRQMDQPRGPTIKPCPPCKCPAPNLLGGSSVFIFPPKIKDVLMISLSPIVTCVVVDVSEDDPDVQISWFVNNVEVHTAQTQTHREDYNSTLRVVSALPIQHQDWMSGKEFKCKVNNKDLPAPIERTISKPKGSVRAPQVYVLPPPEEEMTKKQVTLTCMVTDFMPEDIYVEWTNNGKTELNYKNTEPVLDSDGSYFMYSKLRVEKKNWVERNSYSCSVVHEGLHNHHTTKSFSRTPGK


Legend:
sIL6R Fc dimer [1] = molecular target: T1, sIL6R Fc dimer; assay: SPR Biacore T100, binder captured by anti-human Fc
Description: (§1) Binding affinities and kinetic rate constants of interaction of hyper-IL6 (HIL6; monomer or dimer), and its components IL6 and sIL6R, with different anti-HIL6 binding domains in scFv, SMIP, Xceptor and reverse Xceptor formats were determined using a Biacore® T100 instrument (GE Healthcare, Piscataway, N.J.).
(§2) Anti-HIL6 SMIPS, Xceptors, and reverse Xceptors were captured by a monoclonal mouse anti-human Fc, which was covalently conjugated to a carboxylmethyl dextran (CM4) surface via amines using N-ethyl-N′-(3-dimethylaminopropyl)-carbodiimide hydrochloride and N-hydroxysuccinimide. The unoccupied sites of the activated surface were blocked by ethanolamine. […] In every cycle, three different HIL6 binders were captured on flow cells 2, 3 and 4, while flow cell 1 was used as the reference cell. For each cycle, a single concentration of a single HIL6-related molecule was injected for 150 seconds at 35 microliters per minute, and then allowed to dissociate for 300 seconds. At the end of the cycle, the surface was regenerated gently using 3M MgCl₂, which dissociates protein bound to anti-hFc capture antibody. Multiple cycles were performed to study binding of monomeric or dimeric HIL6 at different concentrations, in the range of 0-100 nM, for each set of three HIL6 binders captured. […] The experiment was performed at 25° C. Signal associated with binding to the reference cell was used to subtract for bulk refractive changes and blank (buffer-only) injections were used to correct for drift and system noise. The kinetic parameters and affinities were determined using BIAevaluation software. Anti-HIL6 scFv molecules were analyzed in the reverse orientation using a dimeric human HIL6/mouse IgG Fc fusion protein captured by an immobilized rabbit polyclonal anti-mouse IgG Fc antibody on the surface and injecting different concentrations of scFv over the surface. For the HIL6 components IL6 (eBioscience, catalog no. 14-8069) and sIL6R, a single 100 nM injection was performed to obtain a qualitative assessment of binding.

hu HIL6 AFH monomer [2] = molecular target: T2, hu HIL6 AFH monomer; assay: SPR Biacore T100, binder captured by anti-human Fc
Description: as §1, §2

[3] = molecular target: T3, recombinant human soluble IL6 receptor; assay: ELISA, Xceptor captured by anti-human Fc
recombinant human TNF-α = molecular target: T5, recombinant human TNF-α (human, UniProt P01375 77-233); assay: ELISA, Xceptor captured by anti-human Fc
T5 construct: also called rhTNFα

recombinant human IL6 [4] = molecular target: T6, recombinant human IL6 (human, UniProt P05231 30-212); assay: SPR Biacore T100, binder captured by anti-human Fc
T6 construct: also called rhIL6; IL6 monomer

sIL6R Fc dimer [5] = molecular target: T1, sIL6R Fc dimer; assay: SPR Biacore T100, binder captured by anti-human Fc; remark: listed apart in the source
[6] = molecular target: T4, hu HIL6 Fc dimer (dimeric human …); assay: SPR Biacore T100, binder captured by anti-human Fc
hu HIL6 AFH monomer [7] = molecular target: T2, hu HIL6 AFH monomer; assay: SPR Biacore T100, binder captured by anti-human Fc
recombinant human IL6 [8] = molecular target: T6, recombinant human IL6; assay: SPR Biacore T100, binder captured by anti-human Fc; remark: listed apart in the source
Description: as §1, §2

[9] = molecular target: T4, hu HIL6 Fc dimer (dimeric human …); assay: SPR Biacore T100, binder captured by anti-human Fc
Description: as §1, §2

T5 sequence (P01375 77-233 limits assumed): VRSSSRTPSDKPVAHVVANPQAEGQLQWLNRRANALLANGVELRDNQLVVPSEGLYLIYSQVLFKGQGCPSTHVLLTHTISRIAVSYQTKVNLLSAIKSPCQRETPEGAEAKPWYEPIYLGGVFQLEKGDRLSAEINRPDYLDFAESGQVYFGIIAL

binding result (sIL6R Fc dimer [1]) | Kd (hu HIL6 AFH monomer [2]) | binding result [3] | binding result (recombinant human TNF-α) | Kd (recombinant human IL6 [4]) | binding result (sIL6R Fc dimer [5]) | Kd [6] | Kd (hu HIL6 AFH monomer [7]) | binding result (recombinant human IL6 [8]) | Kd [9] | Binder
no binding (tested: 100 nM) | 180 nM |  |  |  |  |  |  |  |  | TRU(S6)-1029 (Fc fusion, SMIP (scFv - linker - CH2CH3)) EVQLLESGGGLVQPGGSLRLSCAASGFTFSSYWMHWVRQAPGKGLEWVSSIYPSGGSTEYADSVKGRFTISRDNSKNTLYLQMNSLRAEDTAVYYCAKGIWFDPWGQGTLVTVSSGGGGSGGGGSGGGGSQDIQMTQSPATLSASVGDRVTITCRSSQRISGYLNWYQQQPGKAPKLLIYAASTLQSGVPSRISGSGSGTDFSLIISSLQPEDVATYYCQQSYSPPFTFGGGTKVEIKTGEPKSSDKTHTCPPCPAPEAAGAPSVFLFPPKPKDTLMISRTPEVTCVVVDVSHEDPEVKFNWYVDGVEVHNAKTKPREEQYNSTYRVVSVLTVLHQDWLNGKAYACAVSNKALPAPIEKTISKAKGQPREPQVYTLPPSRDELTKNQVSLTCLVKGFYPSDIAVEWESNGQPENNYKTTPPVLDSDGSFFLYSKLTVDKSRWQQGNVFSCSVMHEALHNHYTQKSLSLSPGK
 |  | no binding (tested: 75 pM sIL-6R) | binds | 0.57 nM | no binding (tested: 100 nM) | 300 nM | 1.9 nM |  |  | TRU(X6T)-1019 (Fc fusion) EVQLLESGGGLVQPGGSLRLSCAASGFTFSWYLMHWVRQAPGKGLEWVSGIWPSGGHTLYADSVKGRFTISRDNSKNTLYLQMNSLRAEDTAVYYCAREPLLWFGELSYNWFDPWGQGTLVTVSSGGGGSGGGGSGGGGSQDIQMTQSPSSVSASVGDRVTITCRASQGISSWLAWYQQKPGKAPKLLIYAASSLQSGVPSRFSGSGSGTDFTLTISSLQPEDFATYYCQQANSFPLTFGGGTKVEIKTGEPKSSDKTHTCPPCPAPEAAGAPSVFLFPPKPKDTLMISRTPEVTCVVVDVSHEDPEVKFNWYVDGVEVHNAKTKPREEQYNSTYRVVSVLTVLHQDWLNGKAYACAVSNKALPAPIEKTISKAKGQPREPQVYTLPPSRDELTKNQVSLTCLVKGFYPSDIAVEWESNGQPENNYKTTPPVLDSDGSFFLYSKLTVDKSRWQQGNVFSCSVMHEALHNHYTQKSLSLSPGQRHNNSSLNTRTQKARHSPNSLPAQVAFTPYAPEPGSTCRLREYYDQTAQMCCSKCSPGQHAKVFCTKTSDTVCDSCEDSTYTQLWNWVPECLSCGSRCSSDQVETQACTREQNRICTCRPGWYCALSKQEGCRLCAPLRKCRPGFGVARPGTETSDVVCKPCAPGTFSNTTSSTDICRPHQICNVVAIPGNASMDAVCTSTSPTRSMAPGAVHLPQPVSTRSQHTQPTPEPSTAPSTSFLLPMGPSPPAEGSTGD
 | 2.6 nM |  |  |  |  |  |  | no binding (tested: 100 nM) | 4.4 nM | TRU(S6)-1025 (Fc fusion, SMIP (scFv - linker - CH2CH3)) EVQLLESGGGLVQPGGSLRLSCAASGFTFSHYGMHWVRQAPGKGLEWVSSIYPGMTQYADSVKGRFTISRDNSKNTLYLQMNSLRAEDTAVYYCARDRGSGIDAFDIWGQGTMVTVSSGGGGSGGGGSGGGGSQSELTQPPSVSVSPGQTATVSCSGEKLGDRYAWWYQQKAGQSPVLVIYQDTKRPSGVPDRFSGSNSGTSASLVISGPQSEDEADYYCAAWDDSLKGVVFGGGSKLTVLTGEPKSSDKTHTCPPCPAPEAAGAPSVFLFPPKPKDTLMISRTPEVTCVVVDVSHEDPEVKFNWYVDGVEVHNAKTKPREEQYNSTYRVVSVLTVLHQDWLNGKAYACAVSNKALPAPIEKTISKAKGQPREPQVYTLPPSRDELTKNQVSLTCLVKGFYPSDIAVEWESNGQPENNYKTTPPVLDSDGSFFLYSKLTVDKSRWQQGNVFSCSVMHEALHNHYTQKSLSLSPGK
 |  | no binding (tested: 75 pM sIL-6R) | binds | 1 nM | no binding (tested: 100 nM) | 5.7 nM | 17 nM |  |  | TRU(XT6)-1019 (Fc fusion, Xceptor, TNFRSF1B ectodomain N-terminal, anti-IL6xR domain C-terminal) LPAQVAFTPYAPEPGSTCRLREYYDQTAQMCCSKCSPGQHAKVFCTKTSDTVCDSCEDSTYTQLWNWVPECLSCGSRCSSDQVETQACTREQNRICTCRPGWYCALSKQEGCRLCAPLRKCRPGFGVARPGTETSDVVCKPCAPGTFSNTTSSTDICRPHQICNVVAIPGNASMDAVCTSTSPTRSMAPGAVHLPQPVSTRSQHTQPTPEPSTAPSTSFLLPMGPSPPAEGSTGDTGEPKSSDKTHTCPPCPAPEAAGAPSVFLFPPKPKDTLMISRTPEVTCVVVDVSHEDPEVKFNWYVDGVEVHNAKTKPREEQYNSTYRVVSVLTVLHQDWLNGKAYACAVSNKALPAPIEKTISKAKGQPREPQVYTLPPSRDELTKNQVSLTCLVKGFYPSDIAVEWESNGQPENNYKTTPPVLDSDGSFFLYSKLTVDKSRWQQGNVFSCSVMHEALHNHYTQKSLSLSPGQRHNNSSLNTRTQKARHSPNSEVQLLESGGGLVQPGGSLRLSCAASGFTFSWYLMHWVRQAPGKGLEWVSGIWPSGGHTLYADSVKGRFTISRDNSKNTLYLQMNSLRAEDTAVYYCAREPLLWFGELSYNWFDPWGQGTLVTVSSGGGGSGGGGSGGGGSQDIQMTQSPSSVSASVGDRVTITCRASQGISSWLAWYQQKPGKAPKLLIYAASSLQSGVPSRFSGSGSGTDFTLTISSLQPEDFATYYCQQANSFPLTFGGGTKVEIK
 |  | no binding (tested: 75 pM sIL-6R) | binds |  |  |  |  |  |  | TRU(XT6)-1058 (Fc fusion, Xceptor, TNFRSF1B ectodomain N-terminal, anti-IL6xR domain C-terminal) LPAQVAFTPYAPEPGSTCRLREYYDQTAQMCCSKCSPGQHAKVFCTKTSDTVCDSCEDSTYTQLWNWVPECLSCGSRCSSDQVETQACTREQNRICTCRPGWYCALSKQEGCRLCAPLRKCRPGFGVARPGTETSDVVCKPCAPGTFSNTTSSTDICRPHQICNVVAIPGNASMDAVCTSTSPTRSMAPGAVHLPQPVSTRSQHTQPTPEPSTAPSTSFLLPMGPSPPAEGSTGDTGEPKSSDKTHTCPPCPAPEAAGAPSVFLFPPKPKDTLMISRTPEVTCVVVDVSHEDPEVKFNWYVDGVEVHNAKTKPREEQYNSTYRVVSVLTVLHQDWLNGKAYACAVSNKALPAPIEKTISKAKGQPREPQVYTLPPSRDELTKNQVSLTCLVKGFYPSDIAVEWESNGQPENNYKTTPPVLDSDGSFFLYSKLTVDKSRWQQGNVFSCSVMHEALHNHYTQKSLSLSPGQRHNNSSLNTRTQKARHSPNSEVQLLESGGGLVQPGGSLRLSCAASGFTFSMYTMHWVRQAPGKGLEWVSWISPSGGWTKYADSVKGRFTISRDNSKNTLYLQMNSLRAEDTAVYYCAVSPWGGPFDYWGQGTLVTVSSGGGGSGGGGSGGGGSQDIQMTQSPSTLSASVGDRVTITCRASQSISSWLAWYQQKPGKAPKLLIYKASTLESGVPSRFSAGGSGTEFTLTISSLQPDDFGTYYCQQYNSYSLTFGGGTKVEII

Reference: US20110142851A1 (EMERGENT PRODUCT DEVELOPMENT SEATTLE, published 2011)
